Earlier results as cited in publication PMC4298871.

Biological target: M6P/IGF-IIR (Homo sapiens) (UniProt P11717)
Assay: SPR

UniProt P11717, sequence (P11717 41-2491): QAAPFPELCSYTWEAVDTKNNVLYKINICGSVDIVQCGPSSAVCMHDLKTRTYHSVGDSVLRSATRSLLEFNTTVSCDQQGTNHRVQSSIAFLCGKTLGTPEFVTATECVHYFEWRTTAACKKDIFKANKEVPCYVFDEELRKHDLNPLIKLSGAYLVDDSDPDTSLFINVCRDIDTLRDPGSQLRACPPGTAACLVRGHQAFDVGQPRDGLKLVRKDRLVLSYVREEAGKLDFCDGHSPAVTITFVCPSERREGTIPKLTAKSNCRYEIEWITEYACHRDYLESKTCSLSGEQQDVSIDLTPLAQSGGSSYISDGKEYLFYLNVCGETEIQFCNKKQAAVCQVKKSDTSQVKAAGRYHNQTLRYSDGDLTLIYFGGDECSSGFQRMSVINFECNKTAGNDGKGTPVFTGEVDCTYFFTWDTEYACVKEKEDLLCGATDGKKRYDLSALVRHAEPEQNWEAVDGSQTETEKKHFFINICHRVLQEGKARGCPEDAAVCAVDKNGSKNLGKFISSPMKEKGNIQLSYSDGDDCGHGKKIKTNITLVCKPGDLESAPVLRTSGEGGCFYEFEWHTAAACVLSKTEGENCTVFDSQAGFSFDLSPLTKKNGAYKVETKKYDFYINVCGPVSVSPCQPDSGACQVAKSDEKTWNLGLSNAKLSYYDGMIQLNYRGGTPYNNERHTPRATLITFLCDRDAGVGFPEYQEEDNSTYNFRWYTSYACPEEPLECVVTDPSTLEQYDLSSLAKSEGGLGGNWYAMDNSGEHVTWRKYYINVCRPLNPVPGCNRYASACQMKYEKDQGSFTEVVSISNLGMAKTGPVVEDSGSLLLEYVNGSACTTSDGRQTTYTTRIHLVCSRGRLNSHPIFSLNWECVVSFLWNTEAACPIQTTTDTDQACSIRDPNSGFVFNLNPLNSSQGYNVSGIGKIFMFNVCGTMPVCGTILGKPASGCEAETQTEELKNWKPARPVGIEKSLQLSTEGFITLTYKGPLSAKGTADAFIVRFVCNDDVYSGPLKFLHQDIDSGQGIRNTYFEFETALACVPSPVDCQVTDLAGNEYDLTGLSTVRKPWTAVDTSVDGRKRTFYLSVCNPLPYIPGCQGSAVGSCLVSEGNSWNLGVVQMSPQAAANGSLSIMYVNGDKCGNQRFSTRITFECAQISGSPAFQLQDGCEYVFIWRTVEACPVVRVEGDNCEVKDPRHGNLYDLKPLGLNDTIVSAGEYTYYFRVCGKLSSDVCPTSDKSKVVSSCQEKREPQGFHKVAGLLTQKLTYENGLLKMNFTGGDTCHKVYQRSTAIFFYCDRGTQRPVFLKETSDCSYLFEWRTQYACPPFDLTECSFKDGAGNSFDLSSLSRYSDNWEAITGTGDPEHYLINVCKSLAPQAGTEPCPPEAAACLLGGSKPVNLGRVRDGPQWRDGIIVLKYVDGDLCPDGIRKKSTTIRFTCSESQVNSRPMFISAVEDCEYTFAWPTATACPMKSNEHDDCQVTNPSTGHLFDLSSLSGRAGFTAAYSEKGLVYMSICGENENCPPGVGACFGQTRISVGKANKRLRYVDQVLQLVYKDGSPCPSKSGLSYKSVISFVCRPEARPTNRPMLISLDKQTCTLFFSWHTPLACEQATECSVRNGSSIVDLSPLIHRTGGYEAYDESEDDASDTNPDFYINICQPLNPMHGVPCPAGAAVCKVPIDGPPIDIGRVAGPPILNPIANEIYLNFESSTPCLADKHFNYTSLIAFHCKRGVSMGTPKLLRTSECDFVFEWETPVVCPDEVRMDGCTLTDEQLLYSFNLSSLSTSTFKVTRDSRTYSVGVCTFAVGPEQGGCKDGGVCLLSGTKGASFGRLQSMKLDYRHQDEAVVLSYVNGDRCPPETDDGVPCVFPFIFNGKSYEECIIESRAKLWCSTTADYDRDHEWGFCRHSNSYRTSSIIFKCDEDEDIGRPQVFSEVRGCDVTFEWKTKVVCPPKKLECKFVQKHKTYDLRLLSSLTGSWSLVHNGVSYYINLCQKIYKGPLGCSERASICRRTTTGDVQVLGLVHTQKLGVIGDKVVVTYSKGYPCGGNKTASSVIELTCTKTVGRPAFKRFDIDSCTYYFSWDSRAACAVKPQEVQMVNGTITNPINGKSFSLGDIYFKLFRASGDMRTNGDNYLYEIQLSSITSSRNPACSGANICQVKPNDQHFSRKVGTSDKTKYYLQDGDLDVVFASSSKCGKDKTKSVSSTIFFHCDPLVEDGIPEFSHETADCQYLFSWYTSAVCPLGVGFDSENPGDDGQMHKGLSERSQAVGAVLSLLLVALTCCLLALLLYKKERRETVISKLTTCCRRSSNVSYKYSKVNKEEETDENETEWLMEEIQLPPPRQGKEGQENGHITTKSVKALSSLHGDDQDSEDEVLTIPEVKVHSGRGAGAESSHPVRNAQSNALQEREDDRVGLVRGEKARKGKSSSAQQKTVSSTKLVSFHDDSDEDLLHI

DPP-4 (from UniProt P27487)
Kd: 35.9 µM
